In PMC2880403 (Journal of molecular biology, 2010):

Biological target: T1, DsbA C33S (Escherichia coli, UniProt P0AEG4 20-208, C33S)
T1 sequence (looked up): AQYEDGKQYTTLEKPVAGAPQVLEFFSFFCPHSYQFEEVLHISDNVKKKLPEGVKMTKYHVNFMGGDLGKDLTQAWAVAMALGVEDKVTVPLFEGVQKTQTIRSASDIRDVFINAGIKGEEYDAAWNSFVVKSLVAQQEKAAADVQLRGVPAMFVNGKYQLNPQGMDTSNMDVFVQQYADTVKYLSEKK
Experiment: absorbance titration at 500 nm

B1: His-tagged "wildtype" DsbB containing mutations of nonessential cysteines (C8A, C49V) (enzyme, Escherichia coli, UniProt P0A6M2 1-176, looked up)
chain: MLRFLNQASQGRGAWLLMAFTALALELTALWFQHVMLLKPCVLCIYERVALFGVLGAALIGAIAPKTPLRYVAMVIWLYSAFRGVQLTYEHTMLQLYPSPFATCDFMVRFPEWLPLDKWVPQVFVASGDCAERQWDFLGLEMPQWLLGIFIAYLIVAVLVVISQPFKAKKRDLFGR
- binding result: binds
